Results: article PMC6986764, “RNA binding protein FXR1-miR301a-3p axis contributes to p21WAF1 degradation in oral cancer”

Molecular target: FXR1 (rFXR1) (human, UniProt P51114 1-621)
Test: EMSA; 1 ug E. coli tRNA, 1.5 mM EDTA; EMSA: 0.5 pmol 32P-miRNA in 20 ul, 20 mM Na-HEPES pH 7.0, 150 mM NaCl, 0.75 mM DTT, 1.5 mM EDTA, 10% glycerol, 1 ug E. coli tRNA, 37 C 30 min; 12% native PAGE
Details: protein: recombinant, His-tag (pET28a), thrombin-cleaved in final dialysis, single strand

Sequence of FXR1 (rFXR1) (P51114 whole entry): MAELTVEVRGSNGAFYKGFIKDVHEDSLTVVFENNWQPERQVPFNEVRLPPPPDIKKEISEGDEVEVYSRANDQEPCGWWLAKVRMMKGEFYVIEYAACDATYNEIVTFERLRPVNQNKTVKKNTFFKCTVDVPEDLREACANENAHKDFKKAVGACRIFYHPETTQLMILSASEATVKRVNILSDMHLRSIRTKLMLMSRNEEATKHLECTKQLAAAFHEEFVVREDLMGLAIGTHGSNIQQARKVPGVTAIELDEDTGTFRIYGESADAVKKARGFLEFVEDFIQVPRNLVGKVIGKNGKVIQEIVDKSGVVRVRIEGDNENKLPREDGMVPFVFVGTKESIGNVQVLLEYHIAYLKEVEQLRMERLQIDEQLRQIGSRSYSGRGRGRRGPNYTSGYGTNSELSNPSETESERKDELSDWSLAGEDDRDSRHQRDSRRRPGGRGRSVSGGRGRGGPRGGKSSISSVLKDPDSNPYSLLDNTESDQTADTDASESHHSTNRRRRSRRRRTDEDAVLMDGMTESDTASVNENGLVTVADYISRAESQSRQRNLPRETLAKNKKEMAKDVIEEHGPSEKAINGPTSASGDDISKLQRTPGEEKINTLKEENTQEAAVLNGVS

Binder	binding result (label: 5'-32P)	binding result (label: 32P)
CAGUGCAAUAGUAUUGUCAAAGC (ssRNA) [miR301a-3p]	binds	–
UUCCCUUUGUCAUCCUAUGCCU (ssRNA) [miR204-5p]	–	no binding
